# T1: rat IL-17A (rat, UniProt Q61453 18-150, limits assumed)
# T1 construct: Purified recombinant protein in SPR
# T1 sequence (looked up): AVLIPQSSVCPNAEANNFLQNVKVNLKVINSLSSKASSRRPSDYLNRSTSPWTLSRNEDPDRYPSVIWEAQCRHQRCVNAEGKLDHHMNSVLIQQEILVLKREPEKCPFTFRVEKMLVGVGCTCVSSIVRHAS
# T2: mouse IL-17A (mouse, UniProt Q62386 26-158, limits assumed)
# T2 construct: Purified recombinant protein in SPR; also called MuIL-17A; murine IL-17A
# T2 sequence (looked up): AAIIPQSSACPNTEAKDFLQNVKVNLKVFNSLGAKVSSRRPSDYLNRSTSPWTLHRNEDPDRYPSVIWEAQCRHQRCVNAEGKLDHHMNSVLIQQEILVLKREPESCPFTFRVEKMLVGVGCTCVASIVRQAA
# B1: IL17-h5C5.2 (antibody, V domains shown)
# VH: EVQLVQSGAEVKKPGASVKVSCKASGYTFTDYEFHWVRQAPGQGLEWMGVIHPGNGGTAYNQNFRDRVTITADKSTSTAYMELSSLRSEDTAVYYCARFLTYEGYFDYWGQGTLVTVSS
# VL: NIVMTQTPKFLLVSPGDRVTITCKASQSVSIDVGWFQQKPGQSPKLLIYHASNRYTGVPDRFTGSGYGTDFTFTVNTVQAEDLAVYFCQQDYSSPYTFGGGTKLELKR
# notes: IgG; constant regions not specified
# B2: IL17-h5C5.15 (antibody, V domains shown)
# VH: EVQLVQSGAEVKKPGASVKVSCKASGYTFTDYEFHWVRQAPGQGLEWIGVIHPGNGGTAYNQNFRDRATLTADKSTSTAYMELSSLRSEDTAVYYCTRFLTYEGYFDYWGQGTLVTVSS
# VL: EIVMTQSPATLSVSPGERATLSCKASQSVSIDVGWFQQKPGQSPRLLIYHASNRYTGVPARFSGSGSGTDFTLTISSLQPEDFAVYFCQQDYSSPYTFGQGTKLEIKR
# notes: IgG; constant regions not specified; also called h5C5.15 (VH.1b-Vk.3a)
# B3: IL17-h5C5.21 (antibody, V domains shown)
# VH: EVQLVQSGAEVKKPGASVKVSCKASGYTFTDYEFHWVRQAPGQGLEWIGVIHPGNGGTAYNQNFRDRATLTADKSTSTAYMELSSLRSEDTAVYYCTRFLTYEGYFDYWGQGTLVTVSS
# VL: NIVMTQSPATLSVSPGERATLSCKASQSVSIDVGWFQQKPGQSPRLLIYHASNRYTGVPARFSGSGSGTDFTLTISSLQPEDFAVYFCQQDYSSPYTFGQGTKLEIKR
# notes: IgG; constant regions not specified; also called h5C5.21 (VH.1b-Vk.3c)
# B4: IL17-h5C5.11 (antibody, V domains shown)
# VH: EVQLVQSGAEVKKPGASVKVSCKASGYTFTDYEFHWVRQAPGQGLEWMGVIHPGNGGTAYNQNFRDRVTITADKSTSTAYMELSSLRSEDTAVYYCARFLTYEGYFDYWGQGTLVTVSS
# VL: EIVMTQSPATLSVSPGERATLSCKASQSVSIDVGWYQQKPGQAPRLLIYHASNRYTGIPARFSGSGSGTDFTLTISSLQPEDFAVYYCQQDYSSPYTFGQGTKLEIKR
# notes: as for B1
# B5: IL17-h5C5.20 (antibody, V domains shown)
# VH: EVQLVQSGAEVKKPGASVKVSCKASGYTFTDYEFHWVRQAPGQGLEWMGVIHPGNGGTAYNQNFRDRVTITADKSTSTAYMELSSLRSEDTAVYYCARFLTYEGYFDYWGQGTLVTVSS
# VL: NIVMTQSPATLSVSPGERATLSCKASQSVSIDVGWFQQKPGQSPRLLIYHASNRYTGVPARFSGSGSGTDFTLTISSLQPEDFAVYFCQQDYSSPYTFGQGTKLEIKR
# notes: as for B1
# B6: IL17-h5C5.14 (antibody, V domains shown)
# VH: EVQLVQSGAEVKKPGASVKVSCKASGYTFTDYEFHWVRQAPGQGLEWMGVIHPGNGGTAYNQNFRDRVTITADKSTSTAYMELSSLRSEDTAVYYCARFLTYEGYFDYWGQGTLVTVSS
# VL: EIVMTQSPATLSVSPGERATLSCKASQSVSIDVGWFQQKPGQSPRLLIYHASNRYTGVPARFSGSGSGTDFTLTISSLQPEDFAVYFCQQDYSSPYTFGQGTKLEIKR
# notes: IgG; constant regions not specified; also called h5C5.14 (VH.1-Vk.3a)
# Assays:
# human IL-17A [1] = molecular target: T3, human IL-17A (human, UniProt Q16552 24-155); assay: hIL17A ELISA
# T3 construct: Recombinant; biotinylated in the ELISA; also called hIL-17; hIL17A
# Protocol: The following protocol is used to characterize the binding of IL-17 antibodies to human IL-17 by enzyme-linked immunosorbent assay (ELISA). […] Coat ELISA plate with 50 μl per well of Goat anti Mouse IgG-Fc at 2 ug/ml, overnight at 4° C. […] Wash plate 3×PBS/Tween. […] Add 50 μl Mab diluted to 1 μg/ml in PBS/0.1% BSA to appropriate wells. Incubate 1 hr at room temperature (RT). […] Wash plate 3× with PBS/Tween. […] Add 50 μl of serial diluted biotin-IL17 (human IL-17, IL-17A/F, cyno IL-17) to appropriate wells. Incubate 1 hr at room temperature (RT). […] Wash plate 3× with PBS/Tween. […] Incubate 1 hr at RT. […] Wash plate 3× with PBS/Tween. […] Stop reaction with 50 μl 2N H₂SO₄. […] Read absorbance at 450 nm.
# human IL-17A [2] = molecular target: T3, human IL-17A; assay: cell-based or functional assay
# cynomolgus monkey IL-17A [3] = molecular target: T4, cynomolgus monkey IL-17A (cynomolgus monkey, UniProt A0A2K5TTB0 24-155); assay: cell-based or functional assay
# rat IL-17A = molecular target: T1, rat IL-17A; assay: SPR (Biacore 3000), antibody captured by anti-Fc, antigen in solution;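 further: purified recombinant IL-17 antigens flowed over captured antibodies in HBS-EP buffer, global Langmuir one-to-one fit of association and dissociation phases, KD derived from koff over kon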
# Protocol: (§1) The binding of antibodies to purified recombinant human, cyno, rat, mouse, rabbit IL-17 and human IL-17A/F were determined by surface plasmon resonance-based measurements with a Biacore® 3000 instrument (Biacore® AB, Uppsala, Sweden) using running HBS-EP (10 mM HEPES [pH 7.4], 150 mM NaCl, 3 mM EDTA, and 0.005% surfactant P20) at 25° C. […] Approximately 5000 RU of goat anti-mouse or anti-human IgG (Fcγ) fragment specific polyclonal antibody (Pierce Biotechnology Inc, Rockford, Ill.) diluted in 10 mM sodium acetate (pH 4.5) was directly immobilized across a CM5 research grade biosensor chip using a standard amine coupling kit according to manufacturer's instructions and procedures at 25 μg/ml. Unreacted moieties on the biosensor surface were blocked with ethanolamine. Modified carboxymethyl dextran surface in flowcell 2 and 4 was used as a reaction surface. Unmodified carboxymethyl dextran without goat anti-mouse or anti-human IgG in flow cell 1 and 3 was used as the reference surface. For kinetic analysis, rate equations derived from the 1:1 Langmuir binding model were fitted simultaneously to association and dissociation phases of all eight injections (using global fit analysis) with the use of Biaevaluation 4.0.1 software. Purified antibodies were diluted in HEPES-buffered saline for capture across goat anti-mouse or anti-human IgG specific reaction surfaces. Antibodies to be captured as a ligand (25 μg/ml) were injected over reaction matrices at a flow rate of 5 μl/min. The association and dissociation rate constants, kon (unit M-1s-1) and koff (unit s-1) were determined under a continuous flow rate of 25 μl/min. Rate constants were derived by making kinetic binding measurements at ten different antigen concentrations ranging from 10 nM to 200 nM. The equilibrium dissociation constant (unit M) of the reaction between antibodies and recombinant purified IL-17 antigens was then calculated from the kinetic rate constants by the following formula: KD=koff/kon. Binding was recorded as a function of time and kinetic rate constants are calculated. In this assay, on-rates as fast as 10⁶ M⁻¹ s⁻¹ and off-rates as slow as 10⁻⁶ s⁻¹ can be measured.
# human IL-17A/F = molecular target: T5, human IL-17A/F (human, UniProt Q16552 24-155; Q96PD4 31-163); assay: as above
# T5 construct: Recombinant; biotinylated in the ELISA; also called hIL-17A/F; HuIL-17A/F
# Protocol: as §1
# human IL-17A [4] = molecular target: T3, human IL-17A; assay: as above
# Protocol: as §1
# mouse IL-17A = molecular target: T2, mouse IL-17A; assay: as above
# Protocol: as §1
# cynomolgus monkey IL-17A [5] = molecular target: T4, cynomolgus monkey IL-17A; assay: as above
# Protocol: as §1
# T3 sequence (Q16552 24-155): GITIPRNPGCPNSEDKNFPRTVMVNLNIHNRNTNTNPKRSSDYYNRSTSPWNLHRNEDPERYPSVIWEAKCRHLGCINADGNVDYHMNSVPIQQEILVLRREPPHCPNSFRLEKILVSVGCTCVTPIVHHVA
# T5 sequence (Q16552 24-155, chain 1 of 2): as the sequence (Q16552 24-155) above
# T5 sequence (Q96PD4 31-163, chain 2 of 2): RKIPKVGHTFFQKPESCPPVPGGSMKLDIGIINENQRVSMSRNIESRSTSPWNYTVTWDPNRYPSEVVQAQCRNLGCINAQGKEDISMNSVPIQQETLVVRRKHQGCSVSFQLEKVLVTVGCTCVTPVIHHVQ
# T4 sequence (A0A2K5TTB0 entry or part of it): as the sequence (Q16552 24-155) above, with T3A, P8S, N34S, I77V, N78K, P104R counted along it
Binder,EC50 (human IL-17A [1]),"Potency (pM), IL-17-driven IL-6 production in HS27 cells (human IL-17A [2])","Potency (pM), IL-17-driven IL-6 production in HS27 cells (cynomolgus monkey IL-17A [3])",Kd (rat IL-17A),koff (rat IL-17A),kon (rat IL-17A),Kd (human IL-17A/F),koff (human IL-17A/F),kon (human IL-17A/F),Kd (human IL-17A [4]),koff (human IL-17A [4]),kon (human IL-17A [4]),Kd (mouse IL-17A),koff (mouse IL-17A),kon (mouse IL-17A),Kd (cynomolgus monkey IL-17A [5]),koff (cynomolgus monkey IL-17A [5]),kon (cynomolgus monkey IL-17A [5])
B1,1.2 nM,6 pM,11 pM,,,,,,,,,,,,,,,
B2,0.02 nM,13 pM,12 pM,5.8 nM,0.0036 s⁻¹,621000 M⁻¹ s⁻¹,1.43 nM,0.00112 s⁻¹,781000 M⁻¹ s⁻¹,0.458 nM,0.000437 s⁻¹,954000 M⁻¹ s⁻¹,2.83 nM,0.000557 s⁻¹,197000 M⁻¹ s⁻¹,0.358 nM,0.000216 s⁻¹,603000 M⁻¹ s⁻¹
B3,0.03 nM,9 pM,9 pM,5.97 nM,0.0024 s⁻¹,402000 M⁻¹ s⁻¹,1.39 nM,0.00111 s⁻¹,801000 M⁻¹ s⁻¹,0.729 nM,0.000395 s⁻¹,542000 M⁻¹ s⁻¹,3.06 nM,0.000524 s⁻¹,171000 M⁻¹ s⁻¹,0.406 nM,0.00024 s⁻¹,591000 M⁻¹ s⁻¹
B4,0.03 nM,115 pM,90 pM,,,,,,,,,,,,,,,
B5,0.03 nM,12 pM,13 pM,,,,,,,,,,,,,,,
B6,0.03 nM,18 pM,16 pM,5.56 nM,0.00398 s⁻¹,716000 M⁻¹ s⁻¹,1.11 nM,0.00119 s⁻¹,1.07e+06 M⁻¹ s⁻¹,0.363 nM,0.000472 s⁻¹,1.3e+06 M⁻¹ s⁻¹,1.86 nM,0.000494 s⁻¹,266000 M⁻¹ s⁻¹,0.245 nM,0.000229 s⁻¹,934000 M⁻¹ s⁻¹

# Reference: patent US20140348834A1 (published 2014)
